Laboratory results taken from article PMC12796238.
Where two headings read alike, the source gives them in different places.

Experiments:
[1] = molecular target: Undamaged nucleosome core particle (Cy3-labeled human histone octamer on 191 bp Widom 601 DNA) (human) (UniProt P62807); assay: single-molecule fluorescence with optical tweezers
[2] = molecular target: Undamaged nucleosome core particle (Cy3-labeled human histone octamer on 191 bp Widom 601 DNA) (human) (UniProt P62807); assay: single-molecule fluorescence with optical tweezers; remark: listed apart in the source

YFP-PARP1 (poly(ADP-ribose) polymerase 1, wild type), sequence (P09874 whole entry): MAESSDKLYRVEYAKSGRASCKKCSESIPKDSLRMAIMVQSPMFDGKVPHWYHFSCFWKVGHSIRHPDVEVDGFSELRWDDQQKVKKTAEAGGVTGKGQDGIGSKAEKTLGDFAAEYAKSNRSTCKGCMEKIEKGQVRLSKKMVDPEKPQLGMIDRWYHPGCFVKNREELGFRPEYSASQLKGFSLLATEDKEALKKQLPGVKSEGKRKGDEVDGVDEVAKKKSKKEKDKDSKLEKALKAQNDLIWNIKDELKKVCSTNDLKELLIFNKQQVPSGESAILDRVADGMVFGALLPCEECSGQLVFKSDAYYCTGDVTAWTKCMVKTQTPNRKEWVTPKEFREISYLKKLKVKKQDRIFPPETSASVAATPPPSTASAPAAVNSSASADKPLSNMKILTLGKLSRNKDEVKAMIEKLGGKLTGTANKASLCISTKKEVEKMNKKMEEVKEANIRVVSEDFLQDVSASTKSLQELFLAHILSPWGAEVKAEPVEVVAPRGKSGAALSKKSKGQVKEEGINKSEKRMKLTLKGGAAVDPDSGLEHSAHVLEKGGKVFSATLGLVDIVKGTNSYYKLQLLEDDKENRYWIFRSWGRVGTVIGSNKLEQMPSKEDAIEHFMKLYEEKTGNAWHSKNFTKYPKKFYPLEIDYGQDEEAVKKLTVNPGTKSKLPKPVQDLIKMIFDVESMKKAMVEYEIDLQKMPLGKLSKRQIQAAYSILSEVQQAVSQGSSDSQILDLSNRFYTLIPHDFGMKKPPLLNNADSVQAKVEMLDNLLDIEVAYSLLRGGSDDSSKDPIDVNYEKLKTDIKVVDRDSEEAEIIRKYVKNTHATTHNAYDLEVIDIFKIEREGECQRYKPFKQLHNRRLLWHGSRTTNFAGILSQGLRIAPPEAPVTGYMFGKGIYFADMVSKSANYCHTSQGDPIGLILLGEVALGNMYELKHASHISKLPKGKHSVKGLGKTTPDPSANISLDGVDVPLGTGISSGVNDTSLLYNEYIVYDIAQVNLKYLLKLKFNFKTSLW

| Substance | lifetime [1] [s] | Kd [2] [nM] | Kd [1] [nM] |
| --- | --- | --- | --- |
| HaloTag-PARP1 H862A/Y896A/E988A (catalytically dead PARP1) (from UniProt P09874 1-1014) (enzyme) | 56 | – | – |
| YFP-PARP1 (poly(ADP-ribose) polymerase 1, wild type) (from UniProt P09874 1-1014) (enzyme) | 2.5 | 1 | 10.2 |
